Data from patent US20050107584A1.

Columns and labels:
[1] = target: human anti-β2GPI mAb ILA-1; experiment: cell-based or functional assay
[2] = target: human anti-β2GPI mAb ILA-1; experiment: cyto-ELISA on HUVEC coated with 10 µg/ml β2GPI, 10 µM peptide
[3] = target: human anti-β2GPI mAb ILA-1; experiment: competition ELISA, mAb 10 µg/ml preincubated with peptide, β2GPI-coated plates, 10 µM peptide
[4] = target: human anti-β2GPI mAb ILA-3; experiment: cell-based or functional assay
[5] = target: human anti-β2GPI mAb ILA-1; experiment: competition ELISA, β2GPI-coated plates, 10 µM peptide
[6] = target: human anti-β2GPI mAb ILA-3; experiment: as above
[7] = target: human anti-β2GPI mAb ILA-3; experiment: cyto-ELISA on HUVEC coated with 10 µg/ml β2GPI, 10 µM peptide
human anti-β2GPI mAb G-3 [8] = experiment: cell-based or functional assay
human anti-β2GPI mAb G-3 [9] = experiment: competition ELISA, β2GPI-coated plates, 10 µM peptide
human anti-β2GPI mAb G-3 [10] = experiment: cyto-ELISA on HUVEC coated with 10 µg/ml β2GPI, 10 µM peptide

Binder	% inhibition of adhesion of U937 monocyte cells to HUVEC [1] [%]	E-selectin expression by HUVEC (ELISA O.D.) [1] [O.D.]	ICAM-1 expression by HUVEC (ELISA O.D.) [1] [O.D.]	VCAM-1 expression by HUVEC (ELISA O.D.) [1] [O.D.]	% inhibition of ILA-1 mAb binding to HUVEC [2] [%]	% inhibition of ILA-1 mAb binding to β2GPI [3] [%]	% inhibition of adhesion of U937 monocyte cells to HUVEC [4] [%]	E-selectin expression by HUVEC (ELISA O.D.) [4] [O.D.]	% inhibition of ILA-1 mAb binding to β2GPI [5] [%]	% inhibition of ILA-3 mAb binding to β2GPI [6] [%]	% inhibition of ILA-3 mAb binding to HUVEC [7] [%]	% inhibition of adhesion of U937 monocyte cells to HUVEC (human anti-β2GPI mAb G-3 [8]) [%]	E-selectin expression by HUVEC (ELISA O.D.) (human anti-β2GPI mAb G-3 [8]) [O.D.]	ICAM-1 expression by HUVEC (ELISA O.D.) (human anti-β2GPI mAb G-3 [8]) [O.D.]	VCAM-1 expression by HUVEC (ELISA O.D.) (human anti-β2GPI mAb G-3 [8]) [O.D.]	% inhibition of G-3 mAb binding to β2GPI (human anti-β2GPI mAb G-3 [9]) [%]	% inhibition of G-3 mAb binding to HUVEC (human anti-β2GPI mAb G-3 [10]) [%]
NTLKTPRVGG [synthetic peptide A (monomer), Asn Thr Leu Lys Thr Pro Arg Val Gly Gly]	84	0.239	0.204	0.252	95	97	–	–	–	–	–	–	–	–	–	–	–
KDKATFGTHDG [synthetic peptide B (monomer), Lys Asp Lys Ala Thr Phe Gly Thr His Asp Gly]	–	–	–	–	–	–	95	0.211	10	77	72	–	–	–	–	–	–
CATLRVYKGG [synthetic peptide C (monomer), Cys Ala Thr Leu Arg Val Tyr Lys Gly Gly]	–	–	–	–	–	–	–	–	11	–	–	92	0.215	0.186	0.174	98	92
